B1: EDARADD (parent)
chain: VEKVLRRWVDEEWPKRERGDPSRH
B2: USP39 (parent)
chain: TLSEAYIQIWKRRDNDETNQQGA

Variants of: B1
Test: protein stability index of a GFP-peptide fusion (GPS, HEK-293T) (PSI 1-6); higher = more stable
Settings: c terminus: a fixed tail appended
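Note: lentivirally expressed fusions sorted by FACS into six bins by GFP to DsRed ratio, PSI derived from sequencing read proportions per bin multiplied by bin number.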

Variant | protein stability index
VEKVLRRWVDEEWPKRERGDPSRV [H24V] | 2.93
VEKVLRRWVDEEWPKRERGDPSRR [H24R] | 3.5
VEKVLRRWVDEEWPKRERGDPSRQ [H24Q] | 3.56
VEKVLRRWVDEEWPKRERGDPSRT [H24T] | 2.96
VEKVLRRWVDEEWPKRERGDPSRP [H24P] | 2.37
VEKVLRRWVDEEWPKRERGDPSRY [H24Y] | 2.41
VEKVLRRWVDEEWPKRERGDPSRS [H24S] | 2.81
VEKVLRRWVDEEWPKRERGDPSRW [H24W] | 1.84

Variants of: B2
Test: as above
Settings: c terminus: native

Variant | protein stability index
TLSECYIQIWKRRDNDETNQQGA [A5C] | 3.14
TLSEHYIQIWKRRDNDETNQQGA [A5H] | 2.39
TLSEPYIQIWKRRDNDETNQQGA [A5P] | 3.69
TLSEFYIQIWKRRDNDETNQQGA [A5F] | 1.78
TLSESYIQIWKRRDNDETNQQGA [A5S] | 2.31
TLSEQYIQIWKRRDNDETNQQGA [A5Q] | 2.69
TLSEKYIQIWKRRDNDETNQQGA [A5K] | 2.2
TLSERYIQIWKRRDNDETNQQGA [A5R] | 3.47
TLSEIYIQIWKRRDNDETNQQGA [A5I] | 2.02
TLSEDYIQIWKRRDNDETNQQGA [A5D] | 3.45
TLSELYIQIWKRRDNDETNQQGA [A5L] | 2.29
TLSEGYIQIWKRRDNDETNQQGA [A5G] | 2.86
TLSEMYIQIWKRRDNDETNQQGA [A5M] | 2.19
TLSENYIQIWKRRDNDETNQQGA [A5N] | 2.6
TLSEEYIQIWKRRDNDETNQQGA [A5E] | 2.75
TLSVAYIQIWKRRDNDETNQQGA [E4V] | 2.12
TLSNAYIQIWKRRDNDETNQQGA [E4N] | 2.05
TLSTAYIQIWKRRDNDETNQQGA [E4T] | 2.74
TLSLAYIQIWKRRDNDETNQQGA [E4L] | 2.49
TLSRAYIQIWKRRDNDETNQQGA [E4R] | 2.97

Variant | protein stability index
TLSYAYIQIWKRRDNDETNQQGA [E4Y] | 2.04
TLSPAYIQIWKRRDNDETNQQGA [E4P] | 3.17
TLSKAYIQIWKRRDNDETNQQGA [E4K] | 2.4
TLSSAYIQIWKRRDNDETNQQGA [E4S] | 1.76
TLSWAYIQIWKRRDNDETNQQGA [E4W] | 1.73
TLSAAYIQIWKRRDNDETNQQGA [E4A] | 2.46
TLSCAYIQIWKRRDNDETNQQGA [E4C] | 1.73
TLSQAYIQIWKRRDNDETNQQGA [E4Q] | 2.32
TLSDAYIQIWKRRDNDETNQQGA [E4D] | 2.56
TLSGAYIQIWKRRDNDETNQQGA [E4G] | 2.23
TLSFAYIQIWKRRDNDETNQQGA [E4F] | 2.09
TLSMAYIQIWKRRDNDETNQQGA [E4M] | 2.09
TLSIAYIQIWKRRDNDETNQQGA [E4I] | 1.96
TLSHAYIQIWKRRDNDETNQQGA [E4H] | 2.28
TFSEAYIQIWKRRDNDETNQQGA [L2F] | 2.51
TDSEAYIQIWKRRDNDETNQQGA [L2D] | 3.46
TYSEAYIQIWKRRDNDETNQQGA [L2Y] | 2.12
TQSEAYIQIWKRRDNDETNQQGA [L2Q] | 3.35
TGSEAYIQIWKRRDNDETNQQGA [L2G] | 3.77
TESEAYIQIWKRRDNDETNQQGA [L2E] | 3.08

Source: the supplement of paper PMC10567573
